The data set is described as follows: soluble on expression in E. coli; label from the status in PepcDB or PDB records.
Turning to “MKRFLIITILALSVFSLALTLDDAYRLANITQRKLIMMFSSPTCYYCNLFKKEVFPKEDFQEILIPNFVFVELYATDEKTTLFAKEVLGEESVSYRDLFAGFGVRGTPTFFFFKGKEGLGYLPGYVDKDNFIKILKYVAQELKEDFQTYLKKDDPFVGEPLIIEIFKEDADFVLEKDENAVKVDTVPNEVRRDRIYVTDSPDVAKTLQEKGALRVLLAK”, the “soluble on expression in E. coli” value is listed as “not soluble”.
In the case of “MGSDKIHHHHHHMVVIEFKNVSKHFNLYKNKSYSLKEKFLNKVLNRNKLEVEQLHVLKNASFKIGQGETIGIIGENGTGKSTSLKLVANIIRPNEGQVTVKGKISSLLEVGVGFQPDMTGRENVYLYGSIMGLSKKEIDERYDEIVEFAELENFMDTPVKNYSSGMYMRLGFSVAVTVNPDILLVDEVLAVGDANFQKKCLNKIQAFKEQGKTILFVSHDMSTVRRICDRCIFIRKGGEVIEGSTDRMVGLYMKLLYAKSEEHKKEEQKSEESLADFDFKLHEADEFKDGNREGNKKLEITKLYFSDKEGRPRNFFGTEENIKVNVEFRKNTDIKAAVMAFEIITEEGYKLIYHDCKQDGMLITEMKDTNMVSFSLQNELLLKSKYYFSIALMDENLQEIYDFRHKHYWFTIHEGNIKEDGKVKISCDWML”, the “soluble on expression in E. coli” value was “not soluble”.
For “MGSDKIHHHHHHLTWPEASKAASENGSTLVWPFGACEQHGPHLPLITDTFFAENILIKTLNRLPENMPIWMMPSQSIGFSPEHQAFPGTLSLSADVLISMVTDVGQQIASMGFNRLVFFNAHGGQIGLLQAVSRQLRIQCPSIAVLPCFLWSGVPGLDQLLPEKEVEEGLHAALAETSLMLHMARDLVRNDSYLEIKNVDKQIVTTPKGWSLEGASPCAWLTEDLSSSGVIGDASSSNSELGAALENALVDHWIALFTSLLESDWPPIRSERPVSSS” the value was “not soluble”; for “MAHHHHHHMSLCHTASRWRSVQCTGDIPPGRIGHTLCANGTETKIFLYGGVNDRNESISNYLDDLYVFDVNKKHWSKIEMTGQVQCSRAFHSAVYYEGKIYIFGGCNGRGRFNKLFSTSEEGLCAQIEASGQPPSTRYCHSAVLFERCMYIFAGKCGGRNSNRRLSDLYLFDFQTNTWMECPQHGDPPTPRSAHAAFTCGRNMIMFGGRSAQGECCEDMYMYNYDTCMWRPIESPNSGPLFGRARNSVVVHHGKVVVFGGWNGKKKLNDLFTYHVDSNTFEVMHEPDENCPSRRECHVAVVCKNTMVVFGGRFRGEFMSDTAELDLGPKTLKQNCRDWILRSSFKELHSNRGERLPLRLQQFIESWRQLICRVEKIEPRTPLQDSAPNEALSSDSNSQHG”, “not soluble”.
“MGSDKIHHHHHHMKAVYPGSFDPITLGHVDIIKRALSIFDELVVLVTENPRKKCMFTLEERKKLIEEVLSDLDGVKVDVHHGLLVDYLKKHGIKVLVRGLRAVTDYEYELQMALANKKLYSDLETVFLIASEKFSFISSSLVKEVALYGGDVTEWVPPEVARALNEKLKEGKR”: the “soluble on expression in E. coli” value is “soluble”.
In the case of “MESTVTTQEEKLAYQQSVEMASNYANQFDADMKANLAIARTISTTMESYETADRDEALLILENLLRDNPHLLGTYVAFEPDAFDGKDAEYTNSPAHDGTGRFVPYWNKMNGTASVAPLLHYDSSDYYQLPKATEKDVLTEPYFYEGVFMVSYVSPIMKEGEFAGIGGVDVSLEYVDEVVSKVRTFDTGYAFMVSNSGVILSHPTHKDWIGKKDLYDFGGEELEKASRDIKNGIGGHLETADPTTGKTVILFYEPVETGDFAFVLVVPKEEMLAGVADLRERLLEHHHHHH” it was “soluble”; in that of “MHIQRKSTMSKCSADETPVCCCMDVGTIMDNSDCTASYSRVFANRAEAEQTLAALTEKARSVESEPCKITPTFTEESDGVRLDIDFTFACEAEMLIFQLGLR”, “not soluble”.
“GFKVIMVTDVGGLGDKSFNDGTWAGIKQAAEELGIEAKVIQSYEQSDYIPNLSKAAEEADLVFAVGFMMTNDLFKVAKQYPDTYFVGIDITPPEGQILPNVLTFTFKEQEAAFLVGYVAAAMTKTGMVGFVGGIPIPPVERFRYGYEAGIKTYSVLHKKNVKILRGYTQDFEDPKKGKDLAMSQFAEGADIVFHASGACGNGVIEAAREKFSALAGSDKLVDLIDYYTTNGKGFFAIGVDMDQDYMAPGAVLTSAMKRVD”: the “soluble on expression in E. coli” value is “soluble”.
As for “VGGHEKVISLGFDASKGFHTYAFDWQPGYIKWYVDGVLKHTATANIPSTPGKIMMNLWNGTGVDDWLGSYNGANPLYAEYDWVKYTSNQTGGSFFEPFNSYNSGTWEKADGYSNGGVFNCTWRANNVNFTNDGKLKLGLTSSAYNKFDCAEYRSTNIYGYGLYEVSMKPAKNTGIVSSFFTYTGPAHGTQWDEIDIEFLGKDTTKVQFNYYTNG”, the “soluble on expression in E. coli” value was “soluble”.
Turning to “MKKEFSAGGVLFKDGEVLLIKTPSNVWSFPKGNIEPGEKPEETAVREVWEETGVKGEILDYIGEIHYWYTLKGERIFKTVKYYLMKYKEGEPRPSWEVKDAKFFPIKEAKKLLKYKGDKEIFEKALKLKEKFKL”, the “soluble on expression in E. coli” value is given as “soluble”.
As to “GPGSMEQPKGINILITGTPGTGKTSMAEMIAAELDGFQHLEVGKLVKENHFYTEYDTELDTHIIEEKDEDRLLDFMEPIMVSRGNHVVDYHSSELFPERWFHMVVVLHTSTEVLFERLTKRQYSEAKRAENMEAEIQCICEEEARDAYEDDIVLVRENDTLEQMAATVEEIRERVEVLKVERGL”, the “soluble on expression in E. coli” value is “soluble”.
In the case of “MSGNSLKGKRIGFGLTGSHCTYDAVFPEIEKLVNEGAEVLPIVTYTVKTTNTRFGEGEEWVKKLEQLTGNEVIDTIVKAEPLGPKIPLDCMVIAPLTGNSMSKLANAMTDSPVLMAAKATMRNHRPVVLGISTNDALGLNGVNLMRLMAAKNIYFIPFGQDAPQAKPNSMVAYMPLLRDTILAALEGKQLQPVIIERFRYN” it was “not soluble”; in that of “MKDFITEAWLRANHTLSEGAEIHLPADSRLTPSARELLESRHLRIKFIDEQGRLFVDDEQQQPQPVHGLTSSDEHPQACCELCRQPVAKKPDTLTHLSAEKMVAKSDPRLGFRAVLDSTIALAVWLQIELAEPLGCQAIVGLSDEDLHRLSHQPLRYLGHDHLVPEASHGRDAALLNLLRTKVREAETVAAQVFITRSFEVLRPDILQALNRLSSTVYVMMILSVTKQPLTVKQIQQRLGETQ”, “not soluble”.
Regarding “MSRIMIQGTASSVGKSILVAALCRIFKQDGFSVCPYKSQNMSLNSYITLDGKEMGRAQVLQAYAAGLEPEVYMNPILLKPTTDKSCQVIVKGEVYGVSSAKNYYNMKKEFAPMLKEDFEELEDKFDIVVIEGAGSPAEINLRENDIVNMGLAELVDAPVVLVGDIDKGGVFASLFGTVMLLEENERKRIKGTIINKFRGDVEILKPGLSMLEERINIPCFGVVPYFN”, the “soluble on expression in E. coli” value is reported as “not soluble”.
In the case of “MKRMLVGCLAAALLFSSGWATAEAKGKQQSKPKWADKNKDGIPDDWELKYKLGLGKNVANQDKDRDGLTNRVEYNLRLNPTKTDTDKDKILDGDEDTDRDGLTNSAEVALGTKPEDADSDNDHVKDGAEKKGKAQLANVVQKLELQMKTAANQTIKIDYHWSDRHSHLHIKDQTGEVTTNDVQSLINDLQASPSLSNDEVIAKIQTLFSLDTPFRLELEWKYGSGRARKLSVKQDEDKGENAGQPGDDQDDDDQGHDQDGHDQNHDQDDDDYDGGNVGGDDGNSSE” it was “not soluble”.
“MSLAHRTVAMVLFNDVLLLDVTGPMDAFAIANRFLPAARQYRLLTLAEGQAVVRGSCGLKVVADRRLEDLPEAVDLLLVPGGPGAYDIALPGIERWLPKAVRQAKRFGAICTGVFLLGRAGLLNGYRCTTHWNYVERLAQAFPEAKVETEQIYVMDRCLITSGGITAGIDLALAVVAEDHGKALALEVAKVLLVARHRQGGQTPYGPLLAAVPRDDSPIARVQAYIVDHIEQAFTVQKMAELVAMSGRNFARTFLREVGITPLQYLQNARIDRTRKLLECGDLPMKVVAAQCGFGSDRHMRKVFFERIGMTPAQYRAQFGGEGHHHHHH”: the “soluble on expression in E. coli” value was “soluble”.
As for “MRELQADFVKPARIDILLDMPPASRDLQLKHSWNSEDRSLNIFVKEDDKLTFHRHPVAQSTDCIRGKVGLTKGLHIWEIYWPTRQRGTHAVVGVCTADAPLHSVGYQSLVGSTEQSWGWDLGRNKLYHDSKNCAGVTYPAILKNDEAFLVPDKFLVALDMDEGTLSFIVDQQYLGIAFRGLRGKKLYPIVSAVWGHCEITMRYIGGLDPEPLPLMDLCRRTIRQKI”, the “soluble on expression in E. coli” value is reported as “soluble”.
With “MGSDKIHHHHHHMCMTSPDQLTASESADTASAHKRVLVAAPRGYCAGVDRAVETVEKALEKYGAPVYVRKEIVHNRYVVDTLAERGAIFVDETTEAPEGAHLVFSAHGVSPAVHKEAEALSLKTLDATCPLVTKVHNEVKRFARDGYHILLVGHEGHEEVEGTAGEAPDVTHLVDGVESVDKLPEFLHDEKLIWLSQTTLSVDETMTIVKKLHERFAHLQDPPSDDICYATQNRQVAVKAIAAESDVVIVVGSQNSSNSKRLVEVALQAGAGASYLVDYAHQIDESWLDGATTVGVSSGASVPEILVRGVLEFLDARGFHDVKEITTAAEKITFALPRDLRPART”, the “soluble on expression in E. coli” value is given as “not soluble”.
As for “MGSDKIHHHHHHMEVSEFCLEGRFINFVIKDGYKLKGLMLGTHEGEFYIKLAKQLRAAFDLRLPPGTWLQVVGYKKHDLKDGTITLKAERVMAARSEMGRVQTTTPVQEPPSIHNVKVKPAKAKATILVCQKSDCMKRGGKAVCQALEAALSDRGLEDQVTIKGTGCMKNCKAGPNLVMPDKTRHSRIQAAQVPRLMDKHFGDKSLEAQPENLREVAITNGKLC”, the “soluble on expression in E. coli” value is given as “not soluble”.
In the case of “MSLTTALAPGAADALLFDLGRVVIDYDLRRTLKAWAVELGSDPHALMAKLAQNDTFHRYETGHVTDAEFFAAVRTALGLTLTDAQLREGWNAIFIGEMPGIAPLLDRAAKQLPLYALSNTNDSHIAHFSEHYAELLVHFRELFLSSRIGMRKPNGETYDFVVKAIGIAPQRIVFFDDLAENVEAARERGLYAVQVHSSDDVARTLDQLGLEGHHHHHH” it was “soluble”.
On to “MHHHHHHSSGRENLYFQGDPRRRNILRSLRRNTKKPKPKPRPSITKATWESNYFGVPLTTVVTPEKPIPIFIERCIEYIEATGLSTEGIYRVSGNKSEMESLQRQFDQDHNLDLAEKDFTVNTVAGAMKSFFSELPDPLVPYNMQIDLVEAHKINDREQKLHALKEVLKKFPKENHEVFKYVISHLNKVSHNNKVNLMTSENLSICFWPTLMRPDFSTMDALTATRTYQTIIELFIQQCPFFFYNR”, for which the “soluble on expression in E. coli” value is recorded as “soluble”.
As for “MNMAHTTTSMEIFGSPEQVWQLIGGFNSLPDWLPYIPSSKLTEGGRVRHLANPDGDTIIERLEVFNDKERYYTYSIMNAPFPVTNYLSTIQVKEGTESNTSLVEWSGTFTPVEVSDEEAINLFHGIYSDGLKALQQAFLDLEHHHHHH”, the “soluble on expression in E. coli” value was “soluble”.
Consider “MSLSIKMRLGKEFLIDDLKRIEAMRNHLADNIMLMADANEAWRIDQAVIAFKEIEKFNLVWLEEPIKPDDFKGYSYLRSLGKIPIAAGENLHNLAEFNQLIDVNGVDFLEPDLTTCGGITPFMKVAKLAEVNNLPVCSHGVHELHVHLLASCPNASYLEFHAWRIDEFIDSPLKVLNGYTEAPDLPGHGINFDFEKVEKYNVGEGHHHHHH”, for which the “soluble on expression in E. coli” value was “not soluble”.
“MGSDKIHHHHHHMKVFITGGTGFVGSAVVQELVANGFEVVGLARSETSAQKLISWGAQPVRGSLTSLSTLATAAAQADAIIHLGFNNDFRHFFQAGAMDRRAIETMGRAISGTNKPLVVTYGTTGIRKHVETEHEVADTGLLKWLTPRKSEIVARQLMAQNINAFVVRLSPAVHGAGDMGFTRTVIERAKKSHRAEYFGLGTHAWSAVHRLDAAHLFYLVTMYGLEHPTTNERVFNAVAEESITIAAIARTISRKLNVPLKAKYNPLSFGDTAMLYLINCPTSSQLTRQILGWVPVQPDLLTDISSSRY”: the “soluble on expression in E. coli” value is “not soluble”.

The values above are taken from the DeepSol protein solubility set.
